Reference: patent publication US20040081647A1 (published 2004)

Molecular target: T1, human TNFα fusion protein with an N-terminal S-Tag (human, UniProt P01375 77-233)
T1 construct: Constructed, expressed and purified by the applicants; also called S-TNF; not shown: 15 amino acid S-Tag peptide (Novagen)
Assay: indirect ELISA: sp55 from conditioned media captured on Ni-NTA wells, S-TNF at 1 µg/mL, S-protein-HRP, absorbance at 370 nm

T1 sequence (P01375 77-233): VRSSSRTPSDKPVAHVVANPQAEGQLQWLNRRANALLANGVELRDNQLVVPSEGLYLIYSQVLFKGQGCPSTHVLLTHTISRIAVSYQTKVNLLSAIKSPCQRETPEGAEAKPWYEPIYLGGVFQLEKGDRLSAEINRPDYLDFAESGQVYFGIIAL

- fold elevation of S-TNF binding over non-specific binding in control samples: 3 fold
B1: sp55 address domain (human TNFR-1 ecto-domain residues 30-211) with C-terminal myc and His6 tags (receptor)
chain: DAAQPARRAVRSLVPHLGDREKRDSVCPQGKYIHPQNNSICCTKCHKGTYLYNDCPGPGQDTDCRECESGSFTASENHLRHCLSCSKCRKEMGQVEISSCTVDRDTVCGCRKNQYRHYWSENLFQCFNCSLCLNGTVHLSCQEKQNTVCTCHAGFFLRENECVSCSNCKKSLECTKLCLPQIENVKGTEDSGTTRGGPEQKLISEEDLNSAVDHHHHHH
notes: also called p55FL-myc-his; p55FL
